From patent US20210332115A1 (Sanofi, published 2021)
Where a chain is given by its changes, count along the chain named. Each block holds one binder with its values, some of them ahead of it.

How the values were obtained:
[1] = target: T1, Homo sapiens factor Bb protein (human, UniProt P00751 260-764); assay: SPR multi-cycle kinetics; ratio against VH0/Vκ0 on the same chip
T1 construct: Bought from CompTech (A155); also called complement factor Bb; human factor Bb
Experimental: (§1) Antibodies were diluted in running buffer to a final concentration of 0.5 μg/ml. At the start of each cycle, antibodies were loaded onto Fc2, Fc3 and Fc4 of the Protein A chip (GE Healthcare, Little Chalfont, UK). IgGs were captured at a flow rate of 10 μl/min to give an immobilisation level (RL) of ˜63 RU, the theoretical value to obtain an Rmax of ˜50 RU. The surface was then allowed to stabilize. Kinetic data was obtained with factor Bb as analyte and using a flow rate of 30 μl/min to minimize any potential mass transfer effects. Multiple repeats of a blank and a repeat of a single concentration of the analyte were programmed into the kinetic run in order to check the stability of both the surface and analyte over the kinetic cycles. For kinetic analysis, a two-fold dilution range was selected from 12. 5 nM to 0. 391 nM factor Bb. The association phase of factor Bb was monitored for 360 seconds and the dissociation phase was monitored for 600 seconds. Regeneration of the Protein A surface was conducted using two injections of 10 mM glycine-HCL pH 1. 5. The signal from the reference channel Fc1 was subtracted from that of Fc2, Fc3 and Fc4 to correct for differences in non-specific binding to a reference surface, and a global Rmax parameter was used in the 1-to-1 binding model.
(§2) The sensorgrams and fitted data for the binding of chimeric antibodies and humanized variants to factor Bb are shown in FIGS. 4A-4C. The relative KD was calculated by dividing the KD of the humanized variants by that of the chimeric antibody on the same chip. The kinetic parameters measured for the interaction of factor Bb with chimeric antibodies and humanized variants are shown in Table 10.

[2] = target: T1, Homo sapiens factor Bb protein; assay: SPR multi-cycle kinetics, IgG on Protein A chip, factor Bb analyte
Experimental: as §1, §2

[3] = target: T1, Homo sapiens factor Bb protein; assay: SPR single cycle kinetics; ratio against VH0/Vκ0
Experimental: All single cycle kinetic experiments were run at 25° C. with HBS-P+running buffer (pH 7. 4) (GE Healthcare, Little Chalfont, UK).
(§3) Antibodies were diluted in running buffer to a final concentration of 1 μg/ml, based on concentrations assessed by ELISA titer. At the start of each cycle, antibodies were loaded onto Fc2, Fc3 and Fc4 of the Protein A chip (GE Healthcare, Little Chalfont, UK). IgGs were captured at a flow rate of 10 μl/min to give an immobilization level (RL) of ˜63 RU, the theoretical value to obtain an Rmax of ˜50 RU. The surface was then allowed to stabilize. Single cycle kinetic data was obtained with factor Bb (CompTech, Tyler, USA) as the analyte at a flow rate of 30 μl/min to minimize any potential mass transport limitations. Multiple repeats with the reference chimeric antibody were performed to check the stability of the surface and analyte over the kinetic cycles. The signal from the reference channel Fc1 (no antibody) was subtracted from that of Fc2, Fc3 and Fc4 to correct for differences in non-specific binding to a reference surface. A four point, two-fold dilution range from 0. 78 nM to 6. 25 nM factor Bb without regeneration between each concentration was used. The association phase for the four injections of increasing concentrations of factor Bb was monitored for 200 seconds each time and a single dissociation phase was measured for 200 seconds following the last injection of factor Bb. Regeneration of the Protein A surface was conducted using two injections of 10 mM glycine-HCL pH 1. 5.
Single cycle kinetics using cell culture supernatants were performed as described above. […] The relative KD was calculated by dividing the KD of the VH0/Vκ0 reference antibody by that of the humanized variant assayed in the same experiment.

[4] = target: T1, Homo sapiens factor Bb protein; assay: competition ELISA on coated factor Bb; competitor murine parental antibody
Experimental: Factor Bb was diluted in 1× PBS to 1.0 μg/ml and 100 μl/well was coated overnight at 4° C. on a 96-well ELISA plate. The following day the plates were blocked for two hours at room temperature with 1% casein/PBS before washing 2× with PBS pH 7.4. In a 96-well dilution plate a fixed concentration of murine parental antibody (0.5 μg/ml, final concentration) was added in equal volume to a four-fold titration series of test antibody (starting from 45 μg/ml to 0.01 μg/ml, final concentration) diluted in blocking buffer. After washing the plate 3× with PBS-T, 100 μl of chimeric/test antibody mix was added to the ELISA plate. After incubating at room temperature for one hour, the plate was washed 3× with PBS-T and 100 μl of anti-mouse IgG Fc-Specific HRP (Sigma, Dorset, UK) diluted 1:1000 in PBS-T was applied for one hour at room temperature to detect bound mouse antibody. For color development, the plate was washed 3× with PBS-T following which 100 μl of TMB substrate was added and incubated for approximately five minutes at room temperature. The reaction was stopped with 50 μl of 3.0 M hydrochloric acid and absorbance was read immediately using a DYNEX ® plate reader at 450 nm.
IC50 values were calculated for each variant and relative IC50 values were calculated by dividing the IC50 of the humanized variant by that of the chimeric antibody assayed on the same plate (Table 11).

[5] = target: T1, Homo sapiens factor Bb protein; assay: cell-based or functional assay
[6] = target: T1, Homo sapiens factor Bb protein; assay: SPR single cycle kinetics, IgG on Protein A chip, factor Bb analyte
Experimental: In order to assess the binding of all humanized variants, single cycle kinetic analysis was performed on supernatants from transfected cell cultures. […] All single cycle kinetic experiments were run at 25° C. with HBS-P+running buffer (pH 7. 4) (GE Healthcare, Little Chalfont, UK).
as §3
Single cycle kinetics using cell culture supernatants were performed as described above.

[7] = target: T1, Homo sapiens factor Bb protein; assay: BLI Octet, biotinylated antibody on SA biosensors
Experimental: (§4) Briefly, biotinylated antibodies were loaded onto SA Biosensors equilibrated in PBS, 0.1% BSA, 0.02% Tween-20 (assay buffer). After a 60 second baseline in assay buffer, antibodies were loaded onto the probes for 180 seconds, followed by another 60 second baseline. Association to human (Comptech) or cynomolgus monkey factor Bb (purified in-house) was measured for 300 seconds, followed by a 300 second dissociation. Kinetic parameters were calculated by the Octet Analysis software using a 1:1 binding model.

[8] = target: T1, Homo sapiens factor Bb protein; assay: BLI Octet, biotinylated antibody on SA biosensors; remark: listed apart in the source
Experimental: as §4
To determine whether the modification of the Fc portion of the antibodies affected affinity and species cross-reactivity, VH4/VK6-IgG4v2 and VH6/VK7-IgG4v2 were tested alongside their parental antibodies, VH4/VK6 and VH6/VK7, respectively, for their ability to bind human and cynomolgus monkey factor Bb by BLI. VH4/VK6-IgG4v2 and VH6/VK7-IgG4v2 contain mutations in the Fc region that increase the affinity for an Fc receptor.

[9] = target: T1, Homo sapiens factor Bb protein; assay: BLI, multi-cycle kinetics, antibody loaded on anti-hIgG Fc sensors, human factor Bb in solution (100 nM to 0.14 nM), 1:1 fit
Experimental: Multicycle kinetic analysis was performed on CHO and HEK-produced VH6/VK7-IgG4v2 antibodies using biolayer interferometry. Antibodies were diluted to 10 μg/mL in PBS+ 0.02%. Tween20, 0.1% BSA, 0.05% sodium azide and loaded onto anti-hIgG Fc sensors (pre-equilibrated in the same buffer) for 90 seconds followed by a 60-minute baseline in buffer. Binding of a concentration series of human factor Bb (Complement Technologies, #A155), ranging from 100 nM to 0.14 nM in 2-fold dilutions, was measured in a 300 second association in the same buffer, followed by a 300 second dissociation step.

[10] = target: T1, Homo sapiens factor Bb protein; assay: SPR single cycle kinetics, antibody on Protein A chip, antigen analyte
Experimental: (§5) The ability of VH4/VK6 and VH6/VK7 to bind to zymogen factor B and factor Bb from both human and cynomolgus monkey was determined by surface plasmon resonance using a Biacore T200. Human factor B and factor Bb were purchased from Comptech and cynomolgus monkey factor B and factor Bb were purified in-house. Briefly, the monoclonal antibodies were captured on a Biacore Series S Protein A chip in HBSP+ (10 mM HEPES, 150 mM NaCl, 0.05% P20 pH 7.4) at a flow rate of 30 μL/min. A five-point concentration series of each analyte was tested for binding using single cycle kinetics with a contact time of 180 seconds per concentration followed by a 600 sec dissociation at 25° C. and a flow rate of […]. Both human and cynomolgus monkey factor B started at a concentration of 500 nM followed by 2-fold dilutions, while human and cynomolgus monkey factor Bb started at concentrations of 30 nM and 150 nM, respectively, followed by 2-fold dilutions. Data were analyzed using the Biacore evaluation software using a 1:1 binding model. […] Binding to human or cynomolgus monkey factor B was barely detectable and the small signal that was observed was dominated by non-specific binding.

[11] = target: T1, Homo sapiens factor Bb protein; assay: SPR single cycle kinetics; against cynomolgus monkey factor Bb
Experimental: as §5

T1 sequence (P00751 260-764 limits assumed): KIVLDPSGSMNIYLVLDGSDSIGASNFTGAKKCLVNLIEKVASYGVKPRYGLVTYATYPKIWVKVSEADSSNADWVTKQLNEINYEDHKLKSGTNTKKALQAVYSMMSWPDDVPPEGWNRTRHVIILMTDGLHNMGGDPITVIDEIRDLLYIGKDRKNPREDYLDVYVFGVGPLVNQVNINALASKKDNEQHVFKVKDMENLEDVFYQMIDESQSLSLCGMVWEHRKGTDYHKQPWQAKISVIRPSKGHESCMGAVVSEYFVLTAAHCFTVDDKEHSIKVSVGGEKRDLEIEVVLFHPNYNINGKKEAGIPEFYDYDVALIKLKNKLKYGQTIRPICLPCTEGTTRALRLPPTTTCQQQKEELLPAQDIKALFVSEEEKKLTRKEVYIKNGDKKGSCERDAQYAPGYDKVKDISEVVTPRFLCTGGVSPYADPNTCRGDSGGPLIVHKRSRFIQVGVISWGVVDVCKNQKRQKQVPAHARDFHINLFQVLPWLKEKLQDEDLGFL

Relative KD [1]: 1.31
Kd [2]: 2.61 nM
koff [2]: 0.000841 s⁻¹
kon [2]: 322000 M⁻¹ s⁻¹
Relative KD [3]: 1.32
IC50 [4]: 0.75 nM
AP Assay IC50 [5]: 23 nM
Kd [6]: 2.34 nM
koff [6]: 0.000903 s⁻¹
kon [6]: 386000 M⁻¹ s⁻¹
Kd [7]: 1.9 nM
B1: VH4/Vκ7 (antibody, V domains shown)
VH: EVQLVESGGGLVKPGGSLRLSCAASGFTFSNYAMSWVRQAPGKRLEWVATISNRGSYTYYPDSVKGRFTISRDNAKNSLYLQMSSLRSEDTALYYCARERPMDYWGQGTSVTVSS
VL: DIQMTQSPSTLSASVGDRVTITCKASQDVGTAVAWYQQKPGKAPKLLIYWASTRHTGVPDRFSGSGSGTDFTLTISSLQAEDFAVYFCHQHSSNPLTFGQGTKLEIK
notes: Redesigned variant; cloned into the appropriate expression vector (IgG4v1 and kappa were used in the first round)

Relative KD [1]: 5.01
Kd [2]: 9.51 nM
koff [2]: 0.00211 s⁻¹
kon [2]: 222000 M⁻¹ s⁻¹
Relative KD [3]: 1.37
IC50 [4]: 1.43 nM
AP Assay IC50 [5]: 25 nM
Kd [6]: 2.42 nM
koff [6]: 0.0117 s⁻¹
kon [6]: 4.83e+06 M⁻¹ s⁻¹
Kd [7]: 2.9 nM
B2: VH7/Vκ7 (antibody, V domains shown)
VH: B1 VH with A40T, G42E, S84N, S88A, S110L
VL: B1 VL
notes: Redesigned variant; cloned into the appropriate expression vector (IgG4v1 and kappa were used in the first round); also called VH7/VκK7

Relative KD [1]: 2.71
Kd [2]: 5.17 nM
koff [2]: 0.0013 s⁻¹
kon [2]: 251000 M⁻¹ s⁻¹
Relative KD [3]: 2.17
IC50 [4]: 0.93 nM
AP Assay IC50 [5]: 19 nM
Kd [6]: 3.84 nM
koff [6]: 0.00158 s⁻¹
kon [6]: 412000 M⁻¹ s⁻¹
Kd [7]: 1.9 nM
B3: VH6/Vκ6 (antibody, V domains shown)
VH: B1 VH with S84N, S88A, S110L
VL: B1 VL with Q3V, T10F, S63T, A80S
notes: as for B1

Relative KD [1]: 1.08
Kd [2]: 2.14 nM
koff [2]: 0.000805 s⁻¹
kon [2]: 376000 M⁻¹ s⁻¹
Relative KD [3]: 1.25
IC50 [4]: 1.02 nM
Kd [8]: 1.6 nM
AP Assay IC50 [5]: 22 nM
Kd [6]: 2.22 nM
koff [6]: 0.000859 s⁻¹
kon [6]: 387000 M⁻¹ s⁻¹
Kd [7]: 1.6 nM
B4: VH4/Vκ6-IgG4v1 (antibody)
heavy: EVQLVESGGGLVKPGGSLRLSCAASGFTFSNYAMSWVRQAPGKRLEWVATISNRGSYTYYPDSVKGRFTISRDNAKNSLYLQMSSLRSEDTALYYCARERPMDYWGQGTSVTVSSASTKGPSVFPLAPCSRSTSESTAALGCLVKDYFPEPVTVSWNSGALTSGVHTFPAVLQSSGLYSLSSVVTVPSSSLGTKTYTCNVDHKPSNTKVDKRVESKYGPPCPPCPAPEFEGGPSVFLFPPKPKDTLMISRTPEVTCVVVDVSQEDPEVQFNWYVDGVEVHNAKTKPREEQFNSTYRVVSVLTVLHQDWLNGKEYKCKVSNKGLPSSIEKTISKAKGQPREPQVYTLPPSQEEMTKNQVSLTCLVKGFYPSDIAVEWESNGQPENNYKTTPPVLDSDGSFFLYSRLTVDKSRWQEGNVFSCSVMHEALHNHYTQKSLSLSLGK
light: DIVMTQSPSFLSASVGDRVTITCKASQDVGTAVAWYQQKPGKAPKLLIYWASTRHTGVPDRFTGSGSGTDFTLTISSLQSEDFAVYFCHQHSSNPLTFGQGTKLEIKRTVAAPSVFIFPPSDEQLKSGTASVVCLLNNFYPREAKVQWKVDNALQSGNSQESVTEQDSKDSTYSLSSTLTLSKADYEKHKVYACEVTHQGLSSPVTKSFNRGEC
notes: also called VH4/VK6; V46/VK6-IgG4v1

Kd [9]: 2.7 nM
B5: VH6/Vk7-IgG4v2-CHO (antibody)
heavy chain: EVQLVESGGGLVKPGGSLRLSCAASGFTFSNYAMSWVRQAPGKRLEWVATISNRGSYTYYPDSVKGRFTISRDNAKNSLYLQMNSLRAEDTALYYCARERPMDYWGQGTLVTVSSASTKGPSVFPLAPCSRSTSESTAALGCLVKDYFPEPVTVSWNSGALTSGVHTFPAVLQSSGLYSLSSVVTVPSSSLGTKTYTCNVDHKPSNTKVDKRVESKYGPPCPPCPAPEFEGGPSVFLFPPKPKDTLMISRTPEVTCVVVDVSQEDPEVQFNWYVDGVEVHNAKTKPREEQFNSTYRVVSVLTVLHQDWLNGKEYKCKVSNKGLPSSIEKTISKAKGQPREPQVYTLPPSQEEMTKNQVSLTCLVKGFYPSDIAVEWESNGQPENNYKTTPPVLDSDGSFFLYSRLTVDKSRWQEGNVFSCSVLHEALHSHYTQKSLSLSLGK
light chain: B4 light with V3Q, F10T, T63S, S80A

Relative KD [1]: 2.98
Kd [2]: 5.7 nM
koff [2]: 0.00124 s⁻¹
kon [2]: 218000 M⁻¹ s⁻¹
Relative KD [3]: 1.98
IC50 [4]: 0.82 nM
Kd [8]: 1.7 nM
AP Assay IC50 [5]: 21 nM
Kd [6]: 3.51 nM
koff [6]: 0.00221 s⁻¹
kon [6]: 630000 M⁻¹ s⁻¹
Kd [7]: 1.9 nM
B6: VH6/Vκ7-IgG4v1 (antibody)
heavy: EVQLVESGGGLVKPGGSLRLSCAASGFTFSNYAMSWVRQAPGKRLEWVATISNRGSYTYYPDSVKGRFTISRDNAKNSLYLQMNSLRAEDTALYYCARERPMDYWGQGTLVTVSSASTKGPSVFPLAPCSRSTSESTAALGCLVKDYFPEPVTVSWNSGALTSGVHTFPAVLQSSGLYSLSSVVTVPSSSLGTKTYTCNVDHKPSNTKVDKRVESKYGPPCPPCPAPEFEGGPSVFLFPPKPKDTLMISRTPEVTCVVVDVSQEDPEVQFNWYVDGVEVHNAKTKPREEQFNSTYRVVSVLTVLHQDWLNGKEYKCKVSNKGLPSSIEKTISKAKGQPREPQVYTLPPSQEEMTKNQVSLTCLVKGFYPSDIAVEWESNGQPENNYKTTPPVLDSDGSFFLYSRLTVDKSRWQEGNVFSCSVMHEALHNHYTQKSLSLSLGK
light: B4 light with V3Q, F10T, T63S, S80A
notes: also called VH6/VK7; VH6/VK7-IgG4v1

Kd [8]: 1.6 nM
Kd [10]: 2.26 nM
koff [10]: 0.000925 s⁻¹
kon [10]: 410000 M⁻¹ s⁻¹
fold higher affinity for human factor Bb compared to cynomolgus monkey factor Bb [11]: ~10 fold
B7: VH4/Vκ6-IgG4v2 (antibody)
heavy: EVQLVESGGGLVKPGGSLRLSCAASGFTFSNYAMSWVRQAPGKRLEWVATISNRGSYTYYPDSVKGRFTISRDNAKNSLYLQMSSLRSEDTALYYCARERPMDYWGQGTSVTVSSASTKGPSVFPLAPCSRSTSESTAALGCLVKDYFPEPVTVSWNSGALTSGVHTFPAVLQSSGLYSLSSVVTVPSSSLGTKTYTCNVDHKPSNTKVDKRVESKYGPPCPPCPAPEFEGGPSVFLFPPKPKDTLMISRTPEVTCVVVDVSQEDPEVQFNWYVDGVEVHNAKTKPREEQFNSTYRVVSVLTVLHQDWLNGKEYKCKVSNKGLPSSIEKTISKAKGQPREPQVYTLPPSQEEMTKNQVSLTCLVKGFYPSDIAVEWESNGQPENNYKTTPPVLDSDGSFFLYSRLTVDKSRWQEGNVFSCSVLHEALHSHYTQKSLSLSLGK
light: B4 light
notes: also called VH4/VK6-IgG4v2
